Consider 25 sequences from the supplement of paper PMC9170038.

For the series, the system named is MS2 coat protein. Description: apparent KD of MS2 coat protein; designed switch direction (-1 OFF switch, 1 ON switch): -1; higher = weaker reporter binding. In outline:
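Three titration conditions were used: no input, 200 uM small-molecule ligand, and an oligonucleotide input. In each, SNAP-549-labelled MS2 coat protein was raised from 0.7 or 1.5 nM, doubling, to 3 µM over designed RNA switches transcribed on Illumina chips by stalled E. coli RNA polymerase. Curve fits of normalised cluster fluorescence gave values whose per-design median over clusters is the apparent KD.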

The mark [1] stands for this setting: input ligand: microRNA oligo, concentration not stated.
Setting [2] is: Eterna round: R95, input ligand: FMN 200 uM.
Where [3] appears, read: Eterna round: R95, input ligand: microRNA oligo, concentration not stated.
[4] abbreviates: Eterna round: R95, input ligand: none.

“AAGAAGAAGUAAGGAUAUGAAGAUCUGGUGGUGACAUGAGGAUCACCCAUGUGAAAACGAUGAGAUCAGAAGGUAUAAGAAGAA [AK ExNG2-3.3] (Eterna round: R96, puzzle: Exclusion NG 2)”: the “apparent KD of MS2 coat protein” value (input ligand: FMN 200 uM) is 116 nM, the “apparent KD of MS2 coat protein” value under setting [1] stood at 59.9 nM and the “apparent KD of MS2 coat protein” value (input ligand: none) is 89.4 nM.

“AAGAAGAUCAAAGGAUAUGGAGCUGAAACGGAGCUAGAAGGUUGUCUAGUUUAACAUGAGGAUCACCCAUGUAGGUACCUCUAA [AK ExNG1-V2-1] (Eterna round: R96, puzzle: Exclusion NG 1)”: the “apparent KD of MS2 coat protein” value is, setting by setting: (input ligand: FMN 200 uM) 850 nM; under setting [1], 719 nM; (input ligand: none) 713 nM.

As for “AAGAGGUCAGGAUAUUGGGCGGAAAGGGAAAGGAAAGGGCCCAAGAAGGGACAUGAGGAUCACCCAUGUAAGAA [Excls4-I] (puzzle: Exclusion 4)”, the “apparent KD of MS2 coat protein” value came to 38.5 nM under setting [2], 33 nM under setting [3] and 35.4 nM under setting [4].

Take “AAGAUGCGCGCAGGAUAUGGAGAGAAAGAAAGACCAGAAGGGCGGGUCACACAACAUGAGGAUCACCCAUGUGUGUGUUGCGAA [snuffleupagus] (Eterna round: R96, puzzle: Exclusion NG 1)”: the “apparent KD of MS2 coat protein” value was 9.29 nM (input ligand: FMN 200 uM), 9.54 nM under setting [1] and 12.2 nM (input ligand: none).

On to “AAGGGUGCUUUCAGAACGACAUGAGGAUCACCCAUGUAGACUGAGGAUAUCUACUUCUAAGGACGGGAGAAGGCAGUGUAAUGC [Ex NG3 #68] (Eterna round: R96, puzzle: Exclusion NG 3)”, for which the “apparent KD of MS2 coat protein” value was 23.1 nM (input ligand: FMN 200 uM), 19.5 nM under setting [1] and 21.6 nM (input ligand: none).

As to “AAGGGUGCUUUUAGAACGACAUGAGGAUCACCCAUGUAGACUGAGGAUAUCUACUCCUAAGGACCGGAGAAGGCAGUGUAAUGC [Ex NG3 #64] (Eterna round: R96, puzzle: Exclusion NG 3)”, the “apparent KD of MS2 coat protein” value was determined as 57.8 nM (input ligand: FMN 200 uM), 75 nM under setting [1] and 55.9 nM (input ligand: none).

As to “AAGGUGUUAGGAUAUCGUAGUUUGAGGCAGACGGGAUUUUGCGAGAAGGAACAUGAGGAUCACCCAUGUAGGAU [JR_Exclu4_Sub040] (puzzle: Exclusion 4)”, the “apparent KD of MS2 coat protein” value under setting [3] turned out to be 25.9 nM.

Regarding “AAGUACCGUCACGAUAGUGAUGGUACAACAAGCAAAUGUACAUGAGGAUCACCCAUGUCCUCUUUUGCUCGUCUUAU [Sensor 3 - 94] (puzzle: Sensor v3, turn-off variant 2)”, the “apparent KD of MS2 coat protein” value was determined as 53.3 nM under setting [2], 28.9 nM under setting [3] and 53.8 nM under setting [4].

“AAGUAUAGAGGAUAUAGUGAGUACUACAUGAGGAUCACCCAUGUUCUUCAAAACGUAUUUCUAGAAGGCUGUUAAA [EX-5 Malc#20] (puzzle: Exclusion 5)”: the “apparent KD of MS2 coat protein” value under setting [3] was determined as 43.5 nM.

Regarding “AAGUCGACGGUGAGGAUAUUAGUUGAACGACAGAUUAAGAAGGUACAUGAGGAUCACCCAUGUGGGUAACGUUG [Brourd's EX4 #77] (Eterna round: R97, puzzle: Brourd's mod of Exclusion 4)”, the “apparent KD of MS2 coat protein” value runs as follows: (input ligand: FMN 200 uM) 76.3 nM; (input ligand: none) 107 nM.

As for “AAGUCGACGGUGAGGAUAUUGGUUGAACGACAGAUCAAGAAGGCACAUGAGGAUCACCCAUGUGGGUAACGUCG [Brourd's EX4 #38] (Eterna round: R97, puzzle: Brourd's mod of Exclusion 4)”, the “apparent KD of MS2 coat protein” value reads like this: (input ligand: FMN 200 uM) 34.5 nM; (input ligand: none) 19.1 nM.

Turning to “AAGUUGUGAGGAUAUACACAUCGUGCGGAAAGAUCCUUGUCACAUGAGGAUCACCCAUGUAGAAGGCGCGGUAU [Eternabot (L1) Solution 94] (Eterna round: R97, puzzle: Exclusion 2)”, the “apparent KD of MS2 coat protein” value (input ligand: FMN 200 uM) came out at 530 nM and the “apparent KD of MS2 coat protein” value (input ligand: none) turned out to be 740 nM.

“AAUAACAAGCAGAUCCUCCACAUGAGGAUCACCCAUGUGCUCGUCUUGUAAAGUACUAUCACGAAAGUGAUAGUACA (Eterna round: R97, puzzle: Sensor, turn-off variant 1)”: the “apparent KD of MS2 coat protein” value by setting is: (input ligand: FMN 200 uM) 724 nM; (input ligand: none) 718 nM.

Turning to “AAUAACAAGCCGAUCCUCAACAUGAGGAUCACCCAUGUGCUCGUCUUGUAAAGUACUAUCACGAAAGUGAUAGUACA (Eterna round: R97, puzzle: Sensor, turn-off variant 1)”, the “apparent KD of MS2 coat protein” value (input ligand: FMN 200 uM) is 319 nM and the “apparent KD of MS2 coat protein” value (input ligand: none) amounted to 419 nM.

Take “AAUAACAAGCCGAUCCUUAACAUGAGGAUCACCCAUGUGCUCGUCUUGUAAAGUACUAUCACGAAAGUGAUAGUACA (Eterna round: R97, puzzle: Sensor, turn-off variant 1)”: the “apparent KD of MS2 coat protein” value was found to be 25.1 nM (input ligand: FMN 200 uM) and 22.7 nM (input ligand: none).

In the case of “AAUAACAGAGGAUAUACUAUUUUAUGUAUUUAUUAUUUUAAACAUGAGGAUCACCCAUGUAGAAGGCUGAUUGA [JMF 70] (puzzle: Exclusion 2)”, the “apparent KD of MS2 coat protein” value under setting [3] turned out to be 28.5 nM.

For the sequence “AAUAACAGAGGAUAUACUAUUUUAUGUGUUUGUUAUUUUAAACAUGAGGAUCACCCAUGUAGAAGGCUGAGUAA [JMF 29] (puzzle: Exclusion 2)”, under setting [3], the “apparent KD of MS2 coat protein” value was 21.9 nM.

As for “AAUAACAGAGGAUAUACUAUUUUAUGUGUUUGUUAUUUUGAACAUGAGGAUCACCCAUGUAGAAGGCUGAAUGA [JMF 65] (puzzle: Exclusion 2)”, the “apparent KD of MS2 coat protein” value under setting [3] amounted to 24.7 nM.

Consider “AAUAACAGAGGAUAUACUGUUUUAUGUGUUUGUUAUUUUGAACAUGAGGAUCACCCAUGUAGAAGGCUGAUUGA [JMF 76] (puzzle: Exclusion 2)”, for which the “apparent KD of MS2 coat protein” value under setting [3] was 46 nM.

For “AAUAACAUGUUGAUCAAAGACAUGAGGAUCACCCAUGUCAGCUUUUUGUUCGUAGAUUAACACUAAUAAUAAUAAUA [Stov1new/2-C] (Eterna round: R97, puzzle: Sensor, turn-off variant 1)”, the “apparent KD of MS2 coat protein” value reads like this: (input ligand: FMN 200 uM) 16.5 nM; (input ligand: none) 16.5 nM.

On to “AAUAACUGAGGAUAUACUAAAAUAUGAAUAAAAUAAAUAAAACAUGAGGAUCACCCAUGUAGAAGGCAGAAUAA [JMF's Not so obvious solution 8] (puzzle: Exclusion 2)”, for which the “apparent KD of MS2 coat protein” value under setting [2] was 21.4 nM, the “apparent KD of MS2 coat protein” value under setting [3] turned out to be 23.3 nM and the “apparent KD of MS2 coat protein” value under setting [4] came out at 21.5 nM.

As for “AAUAAGCGAGGAUAUACUAUUCCUCGACCGGCAGAAACCGGACUUGAGGAUCACCCAAGUAGAAGGCGCAAAAC [Oninso] (Eterna round: R97, puzzle: Exclusion 2)”, the “apparent KD of MS2 coat protein” value runs as follows: (input ligand: FMN 200 uM) 448 nM; (input ligand: none) 32.8 nM.

As for “AAUAAGCUAGGAUAUACAUGAGGAUCACCCAUGUGAGGGCACGGCCGGCGCGUUUCCGGUAGAAGGAGUCAUAA [Exc;s3-VII] (puzzle: Exclusion 3)”, the “apparent KD of MS2 coat protein” value under setting [3] was 33.2 nM.

As to “AAUACAAGCAAGAUCCUAAACAUGAGGAUCACCCAUGUGCUCGUCUUGUAAAGUACUAUCACGAAAGUGAUAGUACA [Sensor 3, v1 - 62] (puzzle: Sensor v3, turn-off variant 1)”, the “apparent KD of MS2 coat protein” value reads like this: under setting [2], 29.4 nM; under setting [3], 103 nM; under setting [4], 32.7 nM.

Consider “AAUAGACAUGAGGAUCACCCAUGUCAGGAUAUUUCGAGUAAGGUGGGCCUAGAAUUGGGAAGAAGGGACCUGGA [Eternabot (L1) Solution 29] (Eterna round: R97, puzzle: Exclusion 1)”, for which the “apparent KD of MS2 coat protein” value by setting is: (input ligand: FMN 200 uM) 17.7 nM; (input ligand: none) 21.3 nM.
